Source: article PMC4409664 (Cell, 2015)

Target: wild-type human serum retinol binding protein with an N-terminal hemagglutinin tag (RBP^HA WT) (human, UniProt P02753 19-201)
Assay: ELISA

- Kd: 59 nM
B1: STRA6 (stimulated by retinoic acid 6) membrane receptor with a myc tag (STRA6^myc) (receptor, UniProt Q9BX79 1-667, looked up)
chain: MSSQPAGNQTSPGATEDYSYGSWYIDEPQGGEELQPEGEVPSCHTSIPPGLYHACLASLSILVLLLLAMLVRRRQLWPDCVRGRPGLPSPVDFLAGDRPRAVPAAVFMVLLSSLCLLLPDEDALPFLTLASAPSQDGKTEAPRGAWKILGLFYYAALYYPLAACATAGHTAAHLLGSTLSWAHLGVQVWQRAECPQVPKIYKYYSLLASLPLLLGLGFLSLWYPVQLVRSFSRRTGAGSKGLQSSYSEEYLRNLLCRKKLGSSYHTSKHGFLSWARVCLRHCIYTPQPGFHLPLKLVLSATLTGTAIYQVALLLLVGVVPTIQKVRAGVTTDVSYLLAGFGIVLSEDKQEVVELVKHHLWALEVCYISALVLSCLLTFLVLMRSLVTHRTNLRALHRGAALDLSPLHRSPHPSRQAIFCWMSFSAYQTAFICLGLLVQQIIFFLGTTALAFLVLMPVLHGRNLLLFRSLESSWPFWLTLALAVILQNMAAHWVFLETHDGHPQLTNRRVLYAATFLLFPLNVLVGAMVATWRVLLSALYNAIHLGQMDLSLLPPRAATLDPGYYTYRNFLKIEVSQSHPAMTAFCSLLLQAQSLLPRTMAAPQDSLRPGEEDEGMQLLQTKDSMAKGARPGASRGRARWGLAYTLLHNPTLQVFRKTALLGANGAQP
